The record followed here is the DeepSol protein solubility set.

The nature of the series: soluble on expression in E. coli; label from the status in PepcDB or PDB records.
Take “MNRTLYTLLFHLGLPLVALRLWWRARQAPAYAKRIGERFSLSLPEVPPGGIWVHAVSVGESIAAAPMVRALLERHPQLPVTVTCMTPTGSERIRALFGEQVRHCYLPYDLPWAAARFLDRVRPRLAVIMETELWPNHIHACAVRGIPVALANARLSERSARGYARFAGLTRPMLAELSWIAVQTEAEAERFRRLGARPECVSVTGSIKFDLRIDPQLPLAAAALREEWDATARPLWIAASTHAGEDEIVLAAHRRLLETRPDALLILVPRHPERFAGVHELCRREGFATVRRSGGEPVARATQVLLGDTMGELLFLYALADIAFVGGSLVPNGGHNLLEPAALGKPVFAGPHLFNFLDIAAQLRDAGALLEVTDAGELCDGLARLWAQPEVATAMATAGEKVLRNNQGALERLLAGLARLLGRGG”: the “soluble on expression in E. coli” value is given as “not soluble”. The result for “MIRIDSVTKRYPDGTVAVDRLSLEIPDRSITVLVGPSGCGKTTTLRMINRMVEPSEGTILLDGADITKQPVNTLRRSMGYVIQNAGLFQHRTIVDNIATVPRMLGWGKERARSRARELMERVGLDASLARRYPYQLSGGQQQRVGVARALASDPPVLLMDEPFSAVDPVVRKGLQEELLRIQDELGKTIVFVTHDIDEAIRLGTMVAVMRTGGHLAQFAPPAELLSAPADAFVEDFLGTDRGIRRLSFFPSAGLELLTTPVVAIDSTAEQIAARGTPDVPYLLVTDVDGKALGWSEPKDLTAGKVVPERLLPYGRPFESGKDSLRAALDCAVLSPTGWAVAVDGTGRVVGVVSQETIGEAIRGAHAERRKADLAGLEHHHHHH” reads “not soluble”. With “GPGSMKTIRKRMRLSVSGRSSARSGMSSDTRLPAAVLERETKVINYSHSTSRAMAAQLENCVRLIRGYQASLQYCNEEIEGALLSLGVATTHSLISSITSVMEGLDTLSGVCRAMHEGYNEEVRHREDLHTSLTGAYISLKELHEATENELREVVAERDRKVAAFGKAVAYVEAVVAERMLWQEANGYNCAGLPVVEMSFSESCHEALRKFDDTVSEAQGEGHSNAESLLASTDVPQTLAKRWDNVENLRHTNGLPSARVLYVPPKDEVELLRNVLEMGTGDRALMWDVQQRERALQDSLTNIHVFGHSCLKALHSMREELAEFRQWFLTIDRKCEPIVVAMRKLGNGVCGLSSASDKNLPH” the entry was “not soluble”; with “SNAEKAVLIGEKEADITFVTWGSQKGPILDVIEDLKEEGISANLLYLKMFSPFPTEFVKNVLSSANLVIDVESNYTAQAAQMIKLYTGIDIKNKILKYNGRHMTEDEILKSAKEILNK”, “soluble”.

In the case of “MGSDKIHHHHHHMRIGVIGLGRIGTIHAENLKMIDDAILYAISDVREDRLREMKEKLGVEKAYKDPHELIEDPNVDAVLVCSSTNTHSELVIACAKAKKHVFCEKPLSLNLADVDRMIEETKKADVILFTGFNRRFDRNFKKLKEAVENGTIGKPHVLRITSRDPAPPPLDYIRVSGGIFLDMTIHDFDMARYIMGEEVEEVFADGSVLVDEEIGKAGDVDTAVVVLRFKSGALGVIDNSRRAVYGYDQRIEVFGSKGRIFADNVRETTVVLTDEQGDRGSRYLYFFLERYRDSYLEELKTFIKNVKSGEPPAVSGEDGKMALLLGYAAKKSLEEKRSVKLEEVIG”, the “soluble on expression in E. coli” value was “not soluble”. With “MFSEELIKENENIWRRFLPHKFLIEMAENTIKKENFEKWLVNDYYFVKNALRFMALLMAKAPDDLLPFFAESIYYISKELEMFEKKAQELGISLNGEIDWRAKSYVNYLLSVASLGSFLEGFTALYCEEKAYYEAWKWVRENLKERSPYQEFINHWSSQEFGEYVKRIEKILNSLAEKHGEFEKERAREVFKEVSKFELIFWDIAYGGEGNVLEHHHHHH” the entry was “soluble”. With “MIDSIRVEGFRGLKELELSSLRRINVIVGRNNSGKSTLLEALSLFLGSSDPGTFGNVLHEILIWRGWYGIQTVDDLFYNGGDSFSISSTGKTLEALNSKHSLEFKLNGEPFYKIDRESIRRLASQAVLLARFSPKENFEFLTPLTFRRFGYAESLYSYAYERKVVKDSIKVLNEAYPEVEGFSPLLKEDNWVLYVETKYGVYPYYLMGEGFKSAMIISFLSSLLRDGVLLIDSAEAFHHPKSLKVMIQTLVRGSEKNNVQVFLTTHSLELLDLMLEMGRDGFVIYMKNVEGRIEVESIEFQRASELRESIGVDLRGFLEHHHHHH” the entry was “soluble”; with “MLSRHINYFLAVAEHGSFTRAASALHVSQPALSQQIRQLEESLGVPLFDRSGRTIRLTDAGEVWRQYASRALQELGAGKRAIHDVADLTRGSLRIAVTPTFTSYFIGPLMADFYARYPSITLQLQEMSQEKIEDMLCRDELDVGIAFAPVHSPELEAIPLLTESLALVVAQHHPLAVHEQVALSRLHDEKLVLLSAEFATREQIDHYCEKAGLHPQVVIEANSISAVLELIRRTSLSTLLPAAIATQHDGLKAISLAPPLLERTAVLLRRKNSWQTAAAKAFLHMALDKCAVVGGNESR”, “not soluble”. With “MSLRYKVGEVAARLGLTLRTLKYYEELGLVTPERTDSRYRMYSEADVQRLERIRRMRALGLSLGTIQAISTHPQESDPDGRQVLTQEALHTLESDLSSQLTVLSTRITAAEKELKDARALRRDVQRDLDYVQRRLAGAQVGELLREKDPAEGHHHHHH” the entry was “not soluble”; with “MSLIYLHGFDSNSPGNHEKVLQLQFIDPDVRLVSYSTRHPKHDMQHLLKEVDKMLQLNVDERPLICGVGLGGYWAERIGFLCDIRQVVFNPNLFPYENMEGKIDRPEEYADIATKCVTNFREKNRDRCLVILSRHDEALDSQRSAQALHPFYEIVWDEEQTHKFKNISPYLQRIKAFKTLGEGHHHHHH”, “not soluble”. For the sequence “MVIHIPVRESNYIEKILLPVMVYFIVNVKQNEWIYTILKEKFFYEEQEECHQILHMAHEILKGRRKGVAQDLTRNAFESYIKSSLNNWLCDPLSFSFSSYIRFRLRTYREMVAKLAEVAIDEYKMEQEYQMFIETLRQQVSSRKSRLSCVHLIFDESFIFYDDKGRRLKQEKLVQYIDEELLKQNDVYIDTKVIAPLLSISPKKIYLYTKEQDHNMIITLRNVFQERVQLHGLHDFERNVKNLKNKGNALDFLSFLEHHHHHH”, the “soluble on expression in E. coli” value is given as “soluble”. The result for “MSPAWPLRPGQKVRVEFYKYPEEALHYFWEAEVVEVRPEGVLTLLPQGGVFHHVGKGRSLVLDHDAYVAFFPGAWYSGGPDVREGRVLEYYWNVQTPALWTGEAFRQYDLELDVKCRADHTCEVFDREEFLAKRPLYPRAWVEEAERAVEAVFRHMREGRWPVLPPGKPLPWMERI” reads “soluble”.

As to “MTEAIHCIGCGAIIQTENPHELGYTPKTAFEKGMETGEVYCQRCFRLRHYNDIQDVQLTDDDFLRLLNGLGTEDALIVNVVDIFDFNGSLIPGLHRFIGDNPVLLVGNKVDILPKSLKKPKMVQWMRERAHEAGLRPVDVLLTSGKKPQEMQELLDTIEKYREGRDVYVVGVTNVGKSTLINQIIQQTVGVQDVITTSQFPGTTLDKIEIPLDDGHFLIDTPGIIHRHQMAHYLGKKDLKIIAPQKEIKPKVYQLNAEQTLFLGGLARFDYVQGAKSSFIAYVSNDLKLHRTKTATADAFYEKHVGGLLQPPRADEVAEFPELVRFEFSVKEKTDIVFAGLGWITVTEPGVVAGWAPKGVDVLRRKALILEHHHHHH”, the “soluble on expression in E. coli” value is recorded as “not soluble”.

As to “QDVIVRTAVAEDVAPIIKMRKHIKEFGSRDENEELIIRQIEKGVKRIYYIEQDQEVVAVAETSAENSFSAMITGVATSDGYRQRGFASTLLKKLCCDVLAEGKKPCLFYDNPVAGEIYHRLGFEHTGDFVMYK”, the “soluble on expression in E. coli” value is listed as “not soluble”. The result for “MAPRDIRPGAEYGDIIEEAIVTCKVFLIVFSETSQISRWVRSELNIGFSSNKPIIPFRIDPTDLKGSMKLMLNDKHWLNAYPNPEEKFSELAAVILDLLQHPAVDTISPPGFQPASNVASADGSNAGAQGLFGKLLNQLFVKRRVKVTSDHAAEIFLNGERKGKLDAYETGNYSVSEDFYQLEVYSCEYGKKVKCEYSGSFSNSSTVIISVDMATAEKQYLMKAKNITSGQINDLGIIFLDEGKFEDAQECFLKAASMGEAAAAYNLGMMYHFGKGVEIDYDVAREYYEEAVKSDYPLALNNLGSIYYNGHGVRKDIAKSFPYFCRAAERGVESAQFTVATMLFYGQGVAVDKAKAKKWFQKAAAQGCKDSQNYLNSWVDD” reads “not soluble”.

Turning to “MGSDKIHHHHHHMEETNEMKDSKHLISNIQSQYTRLSKGQKLIAQYILNNYDKVAFMTACKLGETVGVSESTVVRFANALGYSGYPKLQAALQELIKNKLTTVQRVEMAHDYSDDFAILNKVLKSDIDNIRSTLEEIDERAFKEASNKLLRARKIYILGMRSSFVVAQYLGFYLDIILDNVHIIRMDMGDAFEQIVRINEEDVIVAISFPRYSKKSYQIVNYAKEKGAHVISLTDSLFAPVASLADNTLLVKSNMASFVDSLVPALSISNALAISVGMKEKEDIKQHFDDLEQIWKRYSVYE”, the “soluble on expression in E. coli” value is listed as “not soluble”. With “MAHHHHHHMSGNDLLPLWIGTPQRGVTHDDTADPYTSKVGGQAVYFRLGASTAEQQSAGALSKYFQCPQCKSTAQVSLLCQVYAPLEVYDRVLYILTCAACTRRPRAAASLQGSVPAPALTTGTSKKSGLAAAARSHTSFCFALRSQNFSREHFAELQKQLRAEAQRATEDEKEKAENDAPLFGGGDDDWGDDADDWGTEEGPVKEAKPSPAEPLDDAGDKNGALEKTPNELPEFPLASRGMTVPLKGTLYTSGLPLDLYEEPPPKQTKELSIEEQLAAAKSMYGSSAALDTSGFEEDDEAPEERCVREYMEHMERTPSQCVRWCLGGTPLRTSTTPIGVNGSSLPPPCPACGAVRQFEMQLTAPVVFYLTKDIGEAKNTALHFSNVLVYTCSSNCYNTNSNLPYLPEYVVVEDEL”, the “soluble on expression in E. coli” value is given as “not soluble”. The result for “MGSDKIHHHHHHKLFAAHGVDKVRLTGGEPTIRKDIVHIVEGISSTPGIKEVGITTNGLVLQRFLPQLRDAGLTKINISIDSLDREKFAKMTRRDGFDKVWKAIELARGYYPKVKLNVVVLKHQNENEVVDFVNLTKDRNLDVRFIEFMPFGGNEFKNDNFIGYREMLNLIVDKYGDGVIRLSDSPNDTTKAYKIDGFQGQFGFITSMSDHFCNTCNRLRITADGNL” reads “not soluble”; that for “MMEHDRARTRAWVLHPELKSDLDRRDPVPALEEAVALAAALPDLDVVGSGIVRLPKPHPGHLFGSGKVEELATLFHDNEVELVLIDGPLSPVQQRNLEKAWKVKILDRTGLILEIFSDRARTREGVLQVEMAALSYQRTRLVRAWTHLERQRGGLGFVGGPGETQIEADRRAIDEQLVRLKRQLDKVVKTRELHRKARAKVPYPIVALVGYTNAGKSTLFNRLTGAEVMAKDMLFATLDPTMRRVVLPDGPEVILSDTVGFISDLPTELVAAFRATLEEVLAADLIVHVRDIHHAATEEQARDVETILASLGVDEGRPKFEVWNKVDLLDPDKRAALRERTARDPSLFAVSAVTGEGLESLLTAIAEALAETRSEAVLTLGFADGKRRAWLFAQDVVQAEEQSDDGFRLTVLWTPRQAARYAALLEHHHHHH”, “soluble”. In the case of “MGHHHHHHSHSEVAIKIDFDFAPGSFDDQYQGCSKQVMEKLTQGDYFTKDIEAQKNYFRMWQKAHLAWLNQGKVLPQNMTTTHAVAILFYTLNSNVHSDFTRAMASVARTPQQYERSFHFKYLHYYLTSAIQLLRKDSIMENGTLCYEVHYRTKDVHFNAYTGATIRFGQFLSTSLLKEEAQEFGNQTLFTIFTCLGAPVQYFSLKKEVLIPPYELFKVINMSYHPRGNWLQLRSTGNLSTYNCQLLKASSKKCIPDPIAIASLSFLTSVIIFSKSRV”, the “soluble on expression in E. coli” value is recorded as “not soluble”. The result for “MPTYKLTYFNSRFYAEPARILFHLAGVPFEDIRIIHGDGTWEQIKDKTPFGQVPVLNINGFEIPQSTAIIRYLATKFGYAGKTPEEQAWADAICDQVRDFMAVPFKDIVVAKRVGKTEEEVSQLINEGFVPGRDAYFKIITRILEKNKSGFLVGDGITFADIVVVENLTTLQKNQLFEASKYPELAALREKVYAIPAIKKWVEARPDTQY” reads “not soluble”.
